This passage reports Kd results from US20210395310A1, “Cyclic Peptide” (The University of Tokyo, priority 2018, published 2021).

As usually defined, the Kd is the constant that tells how readily two partners part at equilibrium. High values mean weaker binding, low ones tighter binding.

For this test, the target named is T1, tcHGF(Xa) (human, UniProt P14210 32-490; P14210 495-728).
T1 construct: A C-terminal hexahistidine tag was added and the sample was treated with TEV protease; also called mature HGF (Xa)
T1 sequence (P14210 other isoform, or with tags, fused parts or gaps limits assumed, chain 1 of 2): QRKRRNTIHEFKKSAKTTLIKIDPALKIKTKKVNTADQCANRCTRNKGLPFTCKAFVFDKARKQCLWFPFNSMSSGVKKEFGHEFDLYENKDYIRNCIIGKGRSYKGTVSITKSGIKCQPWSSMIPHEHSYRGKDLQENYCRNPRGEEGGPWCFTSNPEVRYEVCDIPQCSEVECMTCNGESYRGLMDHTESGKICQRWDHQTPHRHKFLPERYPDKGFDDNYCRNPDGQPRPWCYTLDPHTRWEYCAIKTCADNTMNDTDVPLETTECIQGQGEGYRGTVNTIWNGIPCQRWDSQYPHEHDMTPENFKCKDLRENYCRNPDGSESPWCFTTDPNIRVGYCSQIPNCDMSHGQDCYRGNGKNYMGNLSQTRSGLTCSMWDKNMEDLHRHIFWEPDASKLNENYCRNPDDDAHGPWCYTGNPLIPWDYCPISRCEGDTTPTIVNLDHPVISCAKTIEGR
T1 sequence (P14210 495-728 limits assumed, chain 2 of 2): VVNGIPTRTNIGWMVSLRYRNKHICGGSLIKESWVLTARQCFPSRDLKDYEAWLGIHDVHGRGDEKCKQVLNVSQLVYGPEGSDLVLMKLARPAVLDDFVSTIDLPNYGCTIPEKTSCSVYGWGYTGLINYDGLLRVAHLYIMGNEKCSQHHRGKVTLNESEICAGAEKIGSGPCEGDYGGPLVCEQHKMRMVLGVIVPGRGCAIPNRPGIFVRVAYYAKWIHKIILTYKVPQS
The test is described as follows: SPR, Biacore 3000, HiP8-PEG11-biotin on streptavidin chip, tcHGF(Xa) injected, steady-state affinity. As to the method:
A very limited portion of the scHGF(Xa) bound to HiP-8-PEG11. A binding rate was detected by surface plasmon resonance (SPR). RU represents a resonance unit (resonance unit). The upward arrow and the downward arrow mean start and end of HGF input, respectively. Data are expressed as mean±s.d. of typical sensorgrams performed in two iterations by using HGFs having a plurality of concentrations.
Binding of HGF and HGF fragments to immobilized HiP8-PEG11 was measured by surface plasmon resonance (SPR) with Biacore 3000 (product of Ge Flealthcare). Hip8-PEG11-biotin was supported on the surface of a streptavidin-coated chip at 10 RU (resonance unit). The test was performed by injecting HGF and HGF fragments with varying concentrations into 10 mM TBS (pH 7.4), 150 mM NaCl, and 0.05% Tween 20 (v/v) at a flow rate of 30 μl/min. Binding affinity was analyzed from a fitting model of steady-state affinity by multi-cycle kinetics analysis.
In general terms: Surface plasmon resonance follows binding to a sensor surface in real time, without labels.

Positions of bridges follow the written chain, without caps; N, C: chain ends. Non-standard residues stand in square brackets, D forms with d. Primed or numbered codes have the meaning given here. PEG11′ = PEG11 linker (11-unit polyethylene glycol spacer); βAla = NCCC(=O)O

B1: HiP-8-PEG11-biotin (peptide)
peptide: {CH2CO}-[dW]PLSKWWYSKRC-{βAla-PEG11′-K(D-biotin)}
modifications: thioether N-12 (inferred)
notes: also called immobilized HiP-8-PEG11; HiP-8 (in the staining text)
B1 returned a Kd of 2.5 nM.
